Molecular target: TRIM7^B30.2 (PRY-SPRY domain of human TRIM7, residues 338-511) (human) (UniProt Q9C029)
Experiment: ITC

With “2C peptide with F−2 replaced by a positively charged residue (R−2)” the fold decrease in binding affinity against the 2C peptide was greater than 50 fold.
“2C peptide with F−2 replaced by polar serine (S−2)” gave a fold decrease in binding affinity against the 2C peptide greater than 50 fold.
Work on 2C peptide with F−2 substituted by Ala yielded a fold decrease in binding affinity against the 2C peptide of 8 fold.
Work on “2C peptide with F−2 substituted by an acidic residue (D−2)” yielded a fold decrease in binding affinity against the 2C peptide of 8 to 15 fold.

Reference: publication PMC9335266
